Experimental data published in patent US20060242739A1, “Plant nucleotide-sugar pyrophosphatase/phosphodiesterase (nppase), method of obtaining same and use of same in the production of assay devices and in the production of transgenic plants” (Universidad Publica De Navarra, priority 2002, published 2006).

How the values were obtained:
Assay in all cases: purified protein, by the assay type
[1] = substrate: Nc1nc2c(ncn2[C@@H]2O[C@H](COP(=O)(O)OP(=O)(O)O[C@H]3O[C@H](CO)[C@@H](O)[C@H](O)[C@H]3O)[C@@H](O)[C@H]2O)c(=O)[nH]1; conditions: other: substrate of NPPase from rice leaves; pH 7.0; 37.0 °C
[2] = substrate: Nc1ncnc2c1ncn2[C@@H]1O[C@H](COP(=O)(O)OP(=O)(O)O[C@H]2O[C@H](CO)[C@@H](O)[C@H](O)[C@H]2O)[C@@H](O)[C@H]1O; conditions: pH 7.0
[3] = substrate: Nc1nc2c(ncn2[C@@H]2O[C@H](COP(=O)(O)OP(=O)(O)O[C@H]3O[C@H](CO)[C@@H](O)[C@H](O)[C@@H]3O)[C@@H](O)[C@H]2O)c(=O)[nH]1; conditions: pH 7.0
[4] = substrate: Nc1ncnc2c1ncn2[C@@H]1O[C@H](COP(=O)(O)OP(=O)(O)OP(=O)(O)O)[C@@H](O)[C@H]1O; conditions: pH 7.0
[5] = substrate: Nc1ncnc2c1ncn2[C@@H]1O[C@H](COP(=O)(O)OS(=O)(=O)O)[C@@H](O)[C@H]1O; conditions: other: substrate of NPPase from rice leaves; pH 7.0; 37.0 °C
[6] = substrate: Cc1cn([C@H]2C[C@H](O)[C@@H](COP(=O)(O)OP(=O)(O)O[C@H]3O[C@H](CO)[C@@H](O)[C@H](O)[C@H]3O)O2)c(=O)[nH]c1=O; conditions: other: substrate of NPPase from rice leaves; pH 7.0; 37.0 °C
[7] = substrate: O=[N+]([O-])c1ccc(OP(=O)(O)Oc2ccc([N+](=O)[O-])cc2)cc1; conditions: pH 7.0
[8] = substrate: Nc1ccn([C@@H]2O[C@H](COP(=O)(O)OP(=O)(O)O[C@H]3O[C@H](CO)[C@@H](O)[C@H](O)[C@H]3O)[C@@H](O)[C@H]2O)c(=O)n1; conditions: pH 7.0
[9] = substrate: Nc1ncnc2c1ncn2[C@@H]1O[C@H](COP(=O)(O)OP(=O)(O)O)[C@@H](O)[C@H]1O; conditions: pH 7.0
[10] = substrate: NC(=O)c1ccc[n+]([C@@H]2O[C@H](COP(=O)(O)OP(=O)(O)OC[C@H]3O[C@@H](n4cnc5c(N)ncnc54)[C@H](O)[C@@H]3O)[C@@H](O)[C@H]2O)c1; conditions: other: substrate of NPPase from barley leaves; pH 7.0
[11] = substrate: Nc1ncnc2c1ncn2[C@@H]1O[C@H](COP(=O)(O)OP(=O)(O)O[C@H]2O[C@H](CO)[C@@H](O)[C@H](O)[C@@H]2O)[C@@H](O)[C@H]1O; conditions: other: substrate of NPPase from barley leaves; pH 7.0
[12] = substrate: O=[N+]([O-])c1ccc(OP(=O)(O)O)cc1; conditions: other: substrate of NPPase from barley leaves; pH 7.0
[13] = other: substrate of NPPase from rice leaves, 37.0 °C
[14] = other: substrate of NPPase from barley leaves

B1: NPPase from rice leaves (Oryza sativa Japonica Group) (protein)
chain: SRPSSSLEGFQPLSKIAVHKATVDLHGSAFVSATPALLGDQGEDTEWVTVKYGWANPSADDWIAVFSPADFISGSCPNPSRYPDEPLLCTAPIKYQFANYSANYVYWGKGSIRFQLINQRYDFSFALFTGGLENPKLVAVSEAISFKNPKAPVYPRLAQGKSYDEMTVTWTSGYDISEAYPFVEWGMVVAGAAAPTRTAAGTLTFNRGSMCGEPARTVGWRDPGFIHTAFLRDLWPNKEYYYKIGHELSDGSIVWGKQYTFRAPPFPGQNSLQRIIVFGDMGKAERDGSNEFANYQPGSLNTTDRLVEDLDNYDIVFHIGDLPYANGYISQWDQFTAQVAPITAKKPYMIASGNHERDWPNTGGFFDVKDSGGECGVPAETMYYYPAENRANFWYKVDYGMFRFCIADSEHDWREGTDQYKFIEQCLSTVDRKHQPWLIFAAHRVLGYSSNWWYADQGSFEEPEGRESLQRLWQRHRVDVAFFGHVHNYERTCPMYQSQCVSGERRRYSGTMNGTIFVVAGGGGSHLSDYTSAIPKWSVFRDRDFGFVKLTAFNHSSLLFEYKKSSDGKVYDSFTVERDYRDVLSCVHDSCLPTTLAS
For B1, the Km [1] was 930 µM, the Vmax [1] was 119 µmol/min/mg and the kcat/Km [1] was 148000 M⁻¹ s⁻¹. It also gave a Km [2, 13] of 600 µM, a Vmax [2, 13] of 183 µmol/min/mg and a kcat/Km [2, 13] of 350000 M⁻¹ s⁻¹. For the same protein, the Km [3, 13] was 800 µM, the Vmax [3, 13] was 129 µmol/min/mg and the kcat/Km [3, 13] was 190000 M⁻¹ s⁻¹. It also gave a Km [4, 13] of 2060 µM, a Vmax [4, 13] of 356 µmol/min/mg and a kcat/Km [4, 13] of 203000 M⁻¹ s⁻¹. The Km [5] was 3040 µM, the Km [6] was 600 µM and the Vmax [6] was 106 µmol/min/mg. For the same protein, the kcat/Km [6] was 206000 M⁻¹ s⁻¹, the Km [7, 13] was 1300 µM and the Vmax [7, 13] was 191 µmol/min/mg. The kcat/Km [7, 13] was 171000 M⁻¹ s⁻¹, the Km [8, 13] was 920 µM and the Vmax [8, 13] was 107 µmol/min/mg. It also gave a Km [9, 13] of 4330 µM, a Vmax [9, 13] of 385 µmol/min/mg and a kcat/Km [9, 13] of 100000 M⁻¹ s⁻¹.

B2: NPPase from barley leaves (Hordeum vulgare) (protein)
chain: SDGSVVWAKPYTFRAPPTPGQNSLQRIIVFGDMGKAERDGSNEFANYQPGSLNTTDRLIEDLDNYDIVFHIGDMPYANGYLSQWDQFTAQVAPISAKKPYMVASGNHERDWPNTGGFFDVKDSGGECGVPAETMYYYPAENRANFWYKVDYGMFRFCVGDSEHDWREGTPQYKFIEECLSTVDRKHQPWLIFTAHRVLGYSSNSWYADQGSFEEPEGRESLQKLWQRYRVDIAYFGHVHNYERTCPLYQSQCVNADKTHYSGTMNGTIFVVAGGGGSHLSSYTTAIPKWSIFRDHDYGFTKLTAFNHSSLLFEYMKSSDGKVYDSFTIHRDYRDVLSCVHDSCFPTTLAS
Work on B2 yielded a Km [10] of 2500 µM, a Km [2, 14] of 500 µM and a Km [11] of 400 µM. The Km [3, 14] was 400 µM, the Km [4, 14] was 3500 µM and the Km [12] was 500 µM. The Km [7, 14] was 300 µM, the Km [8, 14] was 2800 µM and the Km [9, 14] was 3500 µM.
